How the values were obtained:
[1] = target: T1, co-activator RIP140 (Homo sapiens, UniProt P48552); test: GST-protein-interaction test; format: binding; details: in vitro
T1 sequence (P48552 1-1158): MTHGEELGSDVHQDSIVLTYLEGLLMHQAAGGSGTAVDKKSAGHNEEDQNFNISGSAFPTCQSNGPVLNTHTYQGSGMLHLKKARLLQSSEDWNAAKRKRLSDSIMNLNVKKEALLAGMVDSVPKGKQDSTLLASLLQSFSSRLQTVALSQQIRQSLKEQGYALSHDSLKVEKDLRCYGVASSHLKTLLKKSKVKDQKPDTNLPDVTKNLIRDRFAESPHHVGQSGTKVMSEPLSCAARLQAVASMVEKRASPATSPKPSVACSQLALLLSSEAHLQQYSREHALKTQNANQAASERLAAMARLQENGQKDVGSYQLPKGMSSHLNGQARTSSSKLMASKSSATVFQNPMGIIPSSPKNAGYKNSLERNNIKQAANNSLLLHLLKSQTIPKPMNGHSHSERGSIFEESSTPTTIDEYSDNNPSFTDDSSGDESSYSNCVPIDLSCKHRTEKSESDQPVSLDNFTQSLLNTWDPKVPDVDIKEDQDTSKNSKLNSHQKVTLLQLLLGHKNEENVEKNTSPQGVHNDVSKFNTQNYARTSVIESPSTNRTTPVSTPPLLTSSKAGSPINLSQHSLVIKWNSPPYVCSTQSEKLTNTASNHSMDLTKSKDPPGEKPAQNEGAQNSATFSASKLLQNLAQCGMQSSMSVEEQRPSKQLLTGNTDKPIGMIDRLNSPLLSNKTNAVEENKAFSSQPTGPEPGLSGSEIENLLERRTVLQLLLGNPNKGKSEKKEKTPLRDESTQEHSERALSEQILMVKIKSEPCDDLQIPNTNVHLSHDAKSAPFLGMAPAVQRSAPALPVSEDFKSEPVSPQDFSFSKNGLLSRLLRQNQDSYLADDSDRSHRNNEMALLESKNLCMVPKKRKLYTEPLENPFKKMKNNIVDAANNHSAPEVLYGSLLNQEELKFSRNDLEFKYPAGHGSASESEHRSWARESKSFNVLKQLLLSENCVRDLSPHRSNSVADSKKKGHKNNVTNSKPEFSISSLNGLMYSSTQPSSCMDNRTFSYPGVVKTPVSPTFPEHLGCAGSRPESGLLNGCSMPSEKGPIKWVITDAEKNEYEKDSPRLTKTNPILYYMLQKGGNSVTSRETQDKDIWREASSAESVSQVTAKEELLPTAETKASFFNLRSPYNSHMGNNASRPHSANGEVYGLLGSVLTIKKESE
T1 sequence (Q14192 1-279 partner): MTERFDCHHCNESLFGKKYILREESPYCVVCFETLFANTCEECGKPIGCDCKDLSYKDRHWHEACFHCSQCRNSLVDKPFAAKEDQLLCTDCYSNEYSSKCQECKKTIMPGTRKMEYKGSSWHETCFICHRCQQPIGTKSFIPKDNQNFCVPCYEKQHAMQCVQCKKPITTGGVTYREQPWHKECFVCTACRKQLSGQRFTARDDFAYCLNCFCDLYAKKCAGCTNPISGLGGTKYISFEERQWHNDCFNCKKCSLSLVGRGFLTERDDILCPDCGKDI

[2] = target: co-activator AIB/ACTR (Homo sapiens, UniProt Q9Y6Q9); test: GST-protein-interaction test; format: binding; details: in vitro
co-activator AIB/ACTR, sequence (Q9Y6Q9 whole entry, one chain of several): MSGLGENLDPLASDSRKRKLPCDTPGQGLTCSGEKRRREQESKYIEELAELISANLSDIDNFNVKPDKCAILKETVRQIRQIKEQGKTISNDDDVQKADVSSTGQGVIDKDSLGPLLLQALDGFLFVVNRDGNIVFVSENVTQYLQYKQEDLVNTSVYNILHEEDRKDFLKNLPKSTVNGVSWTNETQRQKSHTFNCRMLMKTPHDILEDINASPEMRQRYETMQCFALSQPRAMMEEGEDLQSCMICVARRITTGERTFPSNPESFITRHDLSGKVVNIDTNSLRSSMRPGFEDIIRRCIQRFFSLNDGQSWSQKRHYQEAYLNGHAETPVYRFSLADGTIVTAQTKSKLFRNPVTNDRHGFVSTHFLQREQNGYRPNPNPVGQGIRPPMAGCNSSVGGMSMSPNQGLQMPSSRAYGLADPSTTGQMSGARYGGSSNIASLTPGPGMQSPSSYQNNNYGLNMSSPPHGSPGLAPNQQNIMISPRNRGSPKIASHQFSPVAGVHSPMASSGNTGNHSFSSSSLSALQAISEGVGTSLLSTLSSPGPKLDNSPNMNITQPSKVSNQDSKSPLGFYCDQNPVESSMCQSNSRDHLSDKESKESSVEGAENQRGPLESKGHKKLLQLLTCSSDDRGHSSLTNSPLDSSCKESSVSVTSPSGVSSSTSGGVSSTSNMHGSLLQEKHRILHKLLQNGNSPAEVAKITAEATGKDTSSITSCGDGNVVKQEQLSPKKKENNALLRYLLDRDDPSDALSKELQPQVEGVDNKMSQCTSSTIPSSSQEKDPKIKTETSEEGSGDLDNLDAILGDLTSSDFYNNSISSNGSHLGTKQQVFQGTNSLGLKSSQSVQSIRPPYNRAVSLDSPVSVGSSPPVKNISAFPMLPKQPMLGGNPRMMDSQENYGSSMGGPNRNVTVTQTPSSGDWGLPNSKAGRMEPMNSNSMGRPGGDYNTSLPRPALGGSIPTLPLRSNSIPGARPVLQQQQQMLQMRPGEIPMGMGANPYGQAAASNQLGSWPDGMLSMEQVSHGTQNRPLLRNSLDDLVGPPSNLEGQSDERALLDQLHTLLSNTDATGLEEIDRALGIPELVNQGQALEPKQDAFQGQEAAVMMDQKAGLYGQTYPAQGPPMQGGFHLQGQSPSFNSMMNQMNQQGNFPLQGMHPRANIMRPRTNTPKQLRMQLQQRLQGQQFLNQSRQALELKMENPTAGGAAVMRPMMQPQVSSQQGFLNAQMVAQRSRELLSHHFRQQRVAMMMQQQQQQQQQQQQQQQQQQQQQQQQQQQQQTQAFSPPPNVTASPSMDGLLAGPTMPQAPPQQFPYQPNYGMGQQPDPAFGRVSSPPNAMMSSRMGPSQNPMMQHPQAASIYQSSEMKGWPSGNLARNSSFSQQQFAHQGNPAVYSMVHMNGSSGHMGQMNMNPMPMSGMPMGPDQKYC

- interaction with co-activator [1]: interacts
- interaction with co-activator [2]: interacts
Substance: SLIM3: LIM-domain protein of 279 amino acids, co-activator for nuclear receptors AR and ERβ

From patent US20020004209A1, “Use of SLIM3 for binding to molecules” (Schering Aktiengesellschaft Patents, priority 1999, published 2002)
